Test results from patent US5856125.

Target: T1, ERF (Homo sapiens) (UniProt P50548)
T1 sequence: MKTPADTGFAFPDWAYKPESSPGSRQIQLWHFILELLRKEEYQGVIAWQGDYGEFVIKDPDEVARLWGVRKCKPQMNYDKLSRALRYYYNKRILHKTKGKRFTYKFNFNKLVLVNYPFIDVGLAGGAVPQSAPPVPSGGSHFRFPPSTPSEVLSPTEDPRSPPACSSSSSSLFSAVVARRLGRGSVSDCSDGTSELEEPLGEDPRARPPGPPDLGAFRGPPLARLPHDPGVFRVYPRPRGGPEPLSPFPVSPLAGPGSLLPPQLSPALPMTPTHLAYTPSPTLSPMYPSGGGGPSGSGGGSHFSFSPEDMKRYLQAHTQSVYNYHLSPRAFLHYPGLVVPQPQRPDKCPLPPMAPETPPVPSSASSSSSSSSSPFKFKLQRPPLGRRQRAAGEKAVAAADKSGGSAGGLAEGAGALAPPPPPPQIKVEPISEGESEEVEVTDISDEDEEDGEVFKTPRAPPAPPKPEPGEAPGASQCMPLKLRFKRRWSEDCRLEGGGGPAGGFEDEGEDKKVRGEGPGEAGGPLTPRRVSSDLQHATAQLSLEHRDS
Test: cell_activity
Settings: HeLa CAT reporter; values over 30 set to 30

ETS2 promoter -394 to +125
activity (fold repression): > 30
